Square brackets hold non-standard residues; d marks the D form. Aib = CC(C)(N)C(=O)O

Experiment [1] has as its target human glucagon-like peptide 1 receptor (GLP-1R) (human, UniProt P43220). The experiment is described as follows: cell-based or functional assay.
In experiment [2] the target is T1, human GLP-2 receptor (hGLP2-R) (human, UniProt O95838).
T1 sequence: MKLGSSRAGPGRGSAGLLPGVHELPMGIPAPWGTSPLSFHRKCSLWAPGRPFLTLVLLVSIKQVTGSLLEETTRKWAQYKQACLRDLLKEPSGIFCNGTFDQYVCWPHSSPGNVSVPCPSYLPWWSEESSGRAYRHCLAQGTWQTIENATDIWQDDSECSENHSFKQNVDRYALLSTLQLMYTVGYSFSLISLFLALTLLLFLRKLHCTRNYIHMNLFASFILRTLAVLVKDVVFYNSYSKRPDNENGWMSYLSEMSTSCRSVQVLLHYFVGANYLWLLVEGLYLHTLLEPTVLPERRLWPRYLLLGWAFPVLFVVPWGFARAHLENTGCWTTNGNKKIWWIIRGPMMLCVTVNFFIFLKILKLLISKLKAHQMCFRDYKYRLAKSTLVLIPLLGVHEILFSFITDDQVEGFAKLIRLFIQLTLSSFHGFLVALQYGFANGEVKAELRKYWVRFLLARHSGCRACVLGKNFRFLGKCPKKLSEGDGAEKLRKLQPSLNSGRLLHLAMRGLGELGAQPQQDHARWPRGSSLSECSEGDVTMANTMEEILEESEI
The experiment is described as follows: cell-based or functional assay.

B1: Compound 4 (peptide)
peptide: H-H[Aib]EGSFTSELATILDEQAARDFIAWLIEHKITD-OH
SMILES: CC[C@H](C)[C@H](NC(=O)[C@H](Cc1ccccc1)NC(=O)[C@H](CC(=O)O)NC(=O)[C@H](CCCNC(=N)N)NC(=O)[C@H](C)NC(=O)[C@H](C)NC(=O)[C@H](CCC(N)=O)NC(=O)[C@H](CCC(=O)O)NC(=O)[C@H](CC(=O)O)NC(=O)[C@H](CC(C)C)NC(=O)[C@@H](NC(=O)[C@@H](NC(=O)[C@H](C)NC(=O)[C@H](CC(C)C)NC(=O)[C@H](CCC(=O)O)NC(=O)[C@H](CO)NC(=O)[C@@H](NC(=O)[C@H](Cc1ccccc1)NC(=O)[C@H](CO)NC(=O)CNC(=O)[C@H](CCC(=O)O)NC(=O)C(C)(C)NC(=O)[C@@H](N)Cc1c[nH]cn1)[C@@H](C)O)[C@@H](C)O)[C@@H](C)CC)C(=O)N[C@@H](C)C(=O)N[C@@H](Cc1c[nH]c2ccccc12)C(=O)N[C@@H](CC(C)C)C(=O)N[C@H](C(=O)N[C@@H](CCC(=O)O)C(=O)N[C@@H](Cc1c[nH]cn1)C(=O)N[C@@H](CCCCN)C(=O)N[C@H](C(=O)N[C@H](C(=O)N[C@@H](CC(=O)O)C(=O)O)[C@@H](C)O)[C@@H](C)CC)[C@@H](C)CC
On to B1, for which the “EC50 GLP-1 (nM); cAMP AlphaScreen” value in experiment [1] amounted to 0.015 nM. The “EC50 GLP-2 (nM); cAMP AlphaScreen” value in experiment [2] was found to be 0.044 nM.

B2: Compound 5 (peptide)
peptide: H-H[Aib]EGTFTSELATILDEQAARDFIAWLIEHKITD-OH
SMILES: CC[C@H](C)[C@H](NC(=O)[C@H](Cc1ccccc1)NC(=O)[C@H](CC(=O)O)NC(=O)[C@H](CCCNC(=N)N)NC(=O)[C@H](C)NC(=O)[C@H](C)NC(=O)[C@H](CCC(N)=O)NC(=O)[C@H](CCC(=O)O)NC(=O)[C@H](CC(=O)O)NC(=O)[C@H](CC(C)C)NC(=O)[C@@H](NC(=O)[C@@H](NC(=O)[C@H](C)NC(=O)[C@H](CC(C)C)NC(=O)[C@H](CCC(=O)O)NC(=O)[C@H](CO)NC(=O)[C@@H](NC(=O)[C@H](Cc1ccccc1)NC(=O)[C@@H](NC(=O)CNC(=O)[C@H](CCC(=O)O)NC(=O)C(C)(C)NC(=O)[C@@H](N)Cc1c[nH]cn1)[C@@H](C)O)[C@@H](C)O)[C@@H](C)O)[C@@H](C)CC)C(=O)N[C@@H](C)C(=O)N[C@@H](Cc1c[nH]c2ccccc12)C(=O)N[C@@H](CC(C)C)C(=O)N[C@H](C(=O)N[C@@H](CCC(=O)O)C(=O)N[C@@H](Cc1c[nH]cn1)C(=O)N[C@@H](CCCCN)C(=O)N[C@H](C(=O)N[C@H](C(=O)N[C@@H](CC(=O)O)C(=O)O)[C@@H](C)O)[C@@H](C)CC)[C@@H](C)CC
For B2, the “EC50 GLP-1 (nM); cAMP AlphaScreen” value in experiment [1] came to 0.0098 nM. Besides, the “EC50 GLP-2 (nM); cAMP AlphaScreen” value in experiment [2] is 0.067 nM.

B3: Teduglutide ([Gly2]-hGLP-2 (1-33)) (peptide)
peptide: HGDGSFSDEMNTILDNLAARDFINWLIQTKITD
With B3, in experiment [1], the “EC50 GLP-1 (nM); cAMP AlphaScreen” value was determined as 39 nM.

B4: Compound 3 (peptide)
peptide: H-H[Aib]EGTFTSELATILDEQAARDFIAWLIAHKITD-OH
SMILES: CC[C@H](C)[C@H](NC(=O)[C@H](CC(C)C)NC(=O)[C@H](Cc1c[nH]c2ccccc12)NC(=O)[C@H](C)NC(=O)[C@@H](NC(=O)[C@H](Cc1ccccc1)NC(=O)[C@H](CC(=O)O)NC(=O)[C@H](CCCNC(=N)N)NC(=O)[C@H](C)NC(=O)[C@H](C)NC(=O)[C@H](CCC(N)=O)NC(=O)[C@H](CCC(=O)O)NC(=O)[C@H](CC(=O)O)NC(=O)[C@H](CC(C)C)NC(=O)[C@@H](NC(=O)[C@@H](NC(=O)[C@H](C)NC(=O)[C@H](CC(C)C)NC(=O)[C@H](CCC(=O)O)NC(=O)[C@H](CO)NC(=O)[C@@H](NC(=O)[C@H](Cc1ccccc1)NC(=O)[C@@H](NC(=O)CNC(=O)[C@H](CCC(=O)O)NC(=O)C(C)(C)NC(=O)[C@@H](N)Cc1c[nH]cn1)[C@@H](C)O)[C@@H](C)O)[C@@H](C)O)[C@@H](C)CC)[C@@H](C)CC)C(=O)N[C@@H](C)C(=O)N[C@@H](Cc1c[nH]cn1)C(=O)N[C@@H](CCCCN)C(=O)N[C@H](C(=O)N[C@H](C(=O)N[C@@H](CC(=O)O)C(=O)O)[C@@H](C)O)[C@@H](C)CC
In the case of B4, the “EC50 GLP-1 (nM); cAMP AlphaScreen” value in experiment [1] came to 0.0074 nM. In addition, the “EC50 GLP-2 (nM); cAMP AlphaScreen” value in experiment [2] was 0.036 nM.
